Measurements taken from article doi:10.1101/2023.12.10.570962 (bioRxiv, 2023).

Target: Legionella collagen-like protein (Lcl) from L. pneumophila strain 130b, intact, residues 1-401 (Legionella pneumophila strain 130b)
Test: SEC-MALS

## Legionella collagen-like protein (Lcl) from L. pneumophila strain 130b, intact, residues 1-401 (natural protein)
  stoichiometry N: 3
